Earlier results as cited in article PMC3721222.
Read-outs that look alike come from different tables or passages of the source. Blank lines part the entries; values can stand above or below the substance they belong to.

What was measured:
Trypsin (Bos taurus) [1] = target: Trypsin (Bos taurus) (UniProt P00760)
[2] = target: Leukocyte elastase (Homo sapiens) (UniProt P08246)
Trypsin (Bos taurus) [3] = target: Trypsin (Bos taurus) (UniProt P00760); remark: listed apart in the source
Trypsin (Bos taurus) [4] = target: Trypsin (Bos taurus) (UniProt P00760); remark: listed apart in the source
Cathepsin D = Cathepsin D (UniProt P07339)
Trypsin (Bos taurus) [5] = target: Trypsin (Bos taurus) (UniProt P00760); remark: listed apart in the source
[6] = target: Chymotrypsin (Bos taurus) (UniProt P00766)
Plasmin (Homo sapiens) [7] = target: Plasmin (Homo sapiens) (UniProt P00747)
Trypsin (Bos taurus) [8] = target: Trypsin (Bos taurus) (UniProt P00760); remark: listed apart in the source
Trypsin (Bos taurus) [9] = target: Trypsin (Bos taurus) (UniProt P00760); remark: listed apart in the source
[10] = target: Chymotrypsin (Bos taurus) (UniProt P00766); remark: listed apart in the source
Trypsin (Bos taurus) [11] = target: Trypsin (Bos taurus) (UniProt P00760); remark: listed apart in the source
Trypsin (Bos taurus) [12] = target: Trypsin (Bos taurus) (UniProt P00760); remark: listed apart in the source
[13] = target: Neutrophil elastase (Homo sapiens) (UniProt P08246)
Trypsin (Bos taurus) [14] = target: Trypsin (Bos taurus) (UniProt P00760); remark: listed apart in the source
Plasmin (Homo sapiens) [15] = target: Plasmin (Homo sapiens) (UniProt P00747); remark: listed apart in the source
[16] = target: Chymotrypsin (Bos taurus) (UniProt P00766); remark: listed apart in the source
Papain (Carica papaya) [17] = target: Papain (Carica papaya) (UniProt P00784)
Trypsin (Bos taurus) [18] = target: Trypsin (Bos taurus) (UniProt P00760); remark: listed apart in the source
Metalloprotease 2 = Metalloprotease 2 (UniProt P08253)
[19] = target: Chymotrypsin (Bos taurus) (UniProt P00766); remark: listed apart in the source
Trypsin (Bos taurus) [20] = target: Trypsin (Bos taurus) (UniProt P00760); remark: listed apart in the source
[21] = target: Chymotrypsin (Bos taurus) (UniProt P00766); remark: listed apart in the source
Trypsin (Bos taurus) [22] = target: Trypsin (Bos taurus) (UniProt P00760); remark: listed apart in the source
Trypsin (Bos taurus) [23] = target: Trypsin (Bos taurus) (UniProt P00760); remark: listed apart in the source
[24] = target: Chymotrypsin (Bos taurus) (UniProt P00766); remark: listed apart in the source
Trypsin (Bos taurus) [25] = target: Trypsin (Bos taurus) (UniProt P00760); remark: listed apart in the source
Trypsin (Bos taurus) [26] = target: Trypsin (Bos taurus) (UniProt P00760); remark: listed apart in the source
[27] = target: Chymotrypsin (Bos taurus) (UniProt P00766); remark: listed apart in the source
Trypsin (Bos taurus) [28] = target: Trypsin (Bos taurus) (UniProt P00760); remark: listed apart in the source
[29] = target: Chymotrypsin (Bos taurus) (UniProt P00766); remark: listed apart in the source
Plasmin (Homo sapiens) [30] = target: Plasmin (Homo sapiens) (UniProt P00747); remark: listed apart in the source
Trypsin (Bos taurus) [31] = target: Trypsin (Bos taurus) (UniProt P00760); remark: listed apart in the source
[32] = target: Chymotrypsin (Bos taurus) (UniProt P00766); remark: listed apart in the source
Trypsin (Bos taurus) [33] = target: Trypsin (Bos taurus) (UniProt P00760); remark: listed apart in the source
[34] = target: Pancreatic elastase (Sus scrofa) (UniProt P00772)
Trypsin (Bos taurus) [35] = target: Trypsin (Bos taurus) (UniProt P00760); remark: listed apart in the source
Cathepsin B = Cathepsin B (UniProt P07858)
Cathepsin L = Cathepsin L (UniProt P07711)
Papain (Carica papaya) [36] = target: Papain (Carica papaya) (UniProt P00784); remark: listed apart in the source
Kv1.2 = Kv1.2 (UniProt P16389)
Kv1.6 = Kv1.6 (UniProt P17658)
Kv1.1 = Kv1.1 (UniProt Q09470)
Plasmin (Homo sapiens) [37] = target: Plasmin (Homo sapiens) (UniProt P00747); remark: listed apart in the source
Trypsin (Bos taurus) [38] = target: Trypsin (Bos taurus) (UniProt P00760); remark: listed apart in the source
[39] = target: Chymotrypsin (Bos taurus) (UniProt P00766); remark: listed apart in the source
Trypsin (Bos taurus) [40] = target: Trypsin (Bos taurus) (UniProt P00760); remark: listed apart in the source
Trypsin (Bos taurus) [41] = target: Trypsin (Bos taurus) (UniProt P00760); remark: listed apart in the source
Plasmin (Homo sapiens) [42] = target: Plasmin (Homo sapiens) (UniProt P00747); remark: listed apart in the source
[43] = target: Chymotrypsin (Bos taurus) (UniProt P00766); remark: listed apart in the source
Trypsin (Bos taurus) [44] = target: Trypsin (Bos taurus) (UniProt P00760); remark: listed apart in the source

Sequence of UniProt P00747 (P00747 581-810): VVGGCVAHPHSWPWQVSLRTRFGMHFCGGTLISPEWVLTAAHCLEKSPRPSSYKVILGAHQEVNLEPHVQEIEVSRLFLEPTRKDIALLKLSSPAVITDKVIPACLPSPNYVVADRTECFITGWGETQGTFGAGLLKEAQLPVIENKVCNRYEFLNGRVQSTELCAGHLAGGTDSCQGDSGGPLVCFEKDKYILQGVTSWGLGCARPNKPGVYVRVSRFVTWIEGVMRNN
Sequence of UniProt P00760 (P00760 149-246): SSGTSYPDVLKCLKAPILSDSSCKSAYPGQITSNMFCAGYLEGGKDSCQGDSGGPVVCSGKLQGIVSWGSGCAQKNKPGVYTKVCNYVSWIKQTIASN
Sequence of UniProt P00784 (P00784 134-345): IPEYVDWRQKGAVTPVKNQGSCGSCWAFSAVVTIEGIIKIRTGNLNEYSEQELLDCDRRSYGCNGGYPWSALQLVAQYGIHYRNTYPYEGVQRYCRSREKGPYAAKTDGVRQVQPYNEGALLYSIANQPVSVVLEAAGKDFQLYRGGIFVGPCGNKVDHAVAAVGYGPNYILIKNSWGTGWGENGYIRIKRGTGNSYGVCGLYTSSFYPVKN
Sequence of UniProt P17658 (P17658 whole entry): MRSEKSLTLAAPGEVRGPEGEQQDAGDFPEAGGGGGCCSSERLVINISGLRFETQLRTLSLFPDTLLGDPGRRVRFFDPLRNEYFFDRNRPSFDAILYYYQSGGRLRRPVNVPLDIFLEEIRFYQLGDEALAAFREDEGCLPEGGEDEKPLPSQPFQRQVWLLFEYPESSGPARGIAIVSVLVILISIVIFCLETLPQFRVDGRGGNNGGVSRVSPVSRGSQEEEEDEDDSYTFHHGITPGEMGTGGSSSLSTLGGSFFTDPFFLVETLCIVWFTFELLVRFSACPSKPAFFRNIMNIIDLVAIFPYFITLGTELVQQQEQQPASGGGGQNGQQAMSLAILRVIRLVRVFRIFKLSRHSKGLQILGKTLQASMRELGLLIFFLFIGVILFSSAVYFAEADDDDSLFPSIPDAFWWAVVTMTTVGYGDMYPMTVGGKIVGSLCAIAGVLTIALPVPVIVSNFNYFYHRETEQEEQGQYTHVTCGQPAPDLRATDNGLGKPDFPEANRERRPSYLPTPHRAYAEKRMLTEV
Sequence of UniProt P00772 (P00772 27-266): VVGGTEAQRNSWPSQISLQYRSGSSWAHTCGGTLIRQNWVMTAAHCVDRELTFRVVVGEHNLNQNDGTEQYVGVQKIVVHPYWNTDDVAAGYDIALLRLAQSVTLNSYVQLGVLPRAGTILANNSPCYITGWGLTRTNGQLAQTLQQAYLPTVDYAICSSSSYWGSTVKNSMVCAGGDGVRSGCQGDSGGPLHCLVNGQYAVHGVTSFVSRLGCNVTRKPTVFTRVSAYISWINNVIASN
Sequence of UniProt P07339 (P07339 65-412): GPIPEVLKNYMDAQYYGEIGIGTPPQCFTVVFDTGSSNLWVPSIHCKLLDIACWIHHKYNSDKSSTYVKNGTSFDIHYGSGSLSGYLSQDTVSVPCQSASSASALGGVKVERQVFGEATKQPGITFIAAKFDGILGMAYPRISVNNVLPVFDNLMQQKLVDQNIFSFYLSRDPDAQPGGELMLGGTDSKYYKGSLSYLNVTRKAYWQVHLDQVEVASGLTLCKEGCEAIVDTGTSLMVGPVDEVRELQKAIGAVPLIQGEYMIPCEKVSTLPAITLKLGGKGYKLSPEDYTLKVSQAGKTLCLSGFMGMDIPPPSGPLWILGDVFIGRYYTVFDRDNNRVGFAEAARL
Sequence of UniProt P16389 (P16389 whole entry): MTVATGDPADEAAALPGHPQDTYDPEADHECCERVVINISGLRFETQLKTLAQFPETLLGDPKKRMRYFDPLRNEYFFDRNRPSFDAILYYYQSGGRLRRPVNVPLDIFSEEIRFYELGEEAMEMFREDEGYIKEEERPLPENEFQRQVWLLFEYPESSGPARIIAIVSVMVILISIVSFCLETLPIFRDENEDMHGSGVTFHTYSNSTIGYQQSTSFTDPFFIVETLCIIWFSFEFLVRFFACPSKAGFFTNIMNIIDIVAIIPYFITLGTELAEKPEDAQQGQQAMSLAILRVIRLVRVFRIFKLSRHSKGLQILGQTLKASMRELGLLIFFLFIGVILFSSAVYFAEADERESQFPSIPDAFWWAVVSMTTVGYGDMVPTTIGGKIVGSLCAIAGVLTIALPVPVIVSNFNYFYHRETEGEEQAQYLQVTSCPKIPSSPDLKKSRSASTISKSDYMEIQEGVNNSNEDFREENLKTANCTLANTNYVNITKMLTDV
Sequence of UniProt Q09470 (Q09470 whole entry): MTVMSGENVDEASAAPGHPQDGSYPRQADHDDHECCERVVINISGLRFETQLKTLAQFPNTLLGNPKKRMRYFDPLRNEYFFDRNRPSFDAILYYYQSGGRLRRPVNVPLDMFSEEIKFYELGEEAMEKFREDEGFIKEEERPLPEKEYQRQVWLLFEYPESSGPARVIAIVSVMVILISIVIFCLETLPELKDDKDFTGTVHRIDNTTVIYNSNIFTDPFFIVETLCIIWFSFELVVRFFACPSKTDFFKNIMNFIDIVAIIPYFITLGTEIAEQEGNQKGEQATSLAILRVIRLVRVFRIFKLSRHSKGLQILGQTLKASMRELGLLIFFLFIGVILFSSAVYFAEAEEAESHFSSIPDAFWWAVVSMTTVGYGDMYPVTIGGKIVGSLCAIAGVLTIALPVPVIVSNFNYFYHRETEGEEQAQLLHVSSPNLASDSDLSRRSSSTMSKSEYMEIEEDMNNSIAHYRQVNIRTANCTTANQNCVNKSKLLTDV
Sequence of UniProt P08253 (P08253 110-660): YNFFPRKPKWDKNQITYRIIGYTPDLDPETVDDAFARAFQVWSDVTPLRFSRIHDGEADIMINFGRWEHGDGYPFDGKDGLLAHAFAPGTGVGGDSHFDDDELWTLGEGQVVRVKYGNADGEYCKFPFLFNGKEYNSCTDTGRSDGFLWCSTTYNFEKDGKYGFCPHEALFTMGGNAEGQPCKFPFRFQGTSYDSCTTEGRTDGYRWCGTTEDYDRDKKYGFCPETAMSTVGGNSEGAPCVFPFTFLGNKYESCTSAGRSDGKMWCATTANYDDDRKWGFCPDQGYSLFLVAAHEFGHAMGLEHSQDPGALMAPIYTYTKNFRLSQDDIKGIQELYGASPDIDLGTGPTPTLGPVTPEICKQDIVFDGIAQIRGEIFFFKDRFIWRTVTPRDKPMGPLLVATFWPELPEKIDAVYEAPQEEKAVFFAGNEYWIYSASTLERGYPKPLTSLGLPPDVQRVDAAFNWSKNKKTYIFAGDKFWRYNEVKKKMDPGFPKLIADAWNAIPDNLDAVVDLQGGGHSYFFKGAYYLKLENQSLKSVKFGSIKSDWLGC
Sequence of UniProt P07711 (P07711 114-288, chain 1 of 2): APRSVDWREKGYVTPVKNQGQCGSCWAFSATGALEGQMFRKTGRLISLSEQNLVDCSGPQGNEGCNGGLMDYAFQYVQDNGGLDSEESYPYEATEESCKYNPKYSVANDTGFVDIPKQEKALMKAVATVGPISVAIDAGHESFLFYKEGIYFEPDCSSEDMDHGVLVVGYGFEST
Sequence of UniProt P07711 (P07711 292-333, chain 2 of 2): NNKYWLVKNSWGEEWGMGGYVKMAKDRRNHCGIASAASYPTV

- Kd (Trypsin (Bos taurus) [1]): 1.92 nM
Substance: Albumin-1 (from UniProt Q3T478)

Substance: Elastase inhibitor AEI (from UniProt P16895)
- Ki [2]: 1000 nM

- Ki (Trypsin (Bos taurus) [3]): 0.0035 nM
Substance: Trypsin inhibitor (from UniProt P20229)

Substance: Jn-IV (from UniProt P16344)
- Kd (Trypsin (Bos taurus) [4]): 9.6 nM

- Ki (Cathepsin D): 0.3 nM
Substance: Equistatin second domain (from UniProt P81439)

Substance: Kalicludin-3 (AsKC3) (from UniProt Q9TWF8)
- Kd (Trypsin (Bos taurus) [5]): < 30 nM

- Ki [6]: 2.55 nM
Substance: CBPTI-3 (from UniProt A8Y7N6)

Substance: Textilinin-2 (from UniProt Q90WA0)
- Ki (Plasmin (Homo sapiens) [7]): 2.2 nM

Substance: rLmKTT-1b (SdPI) (from UniProt P0DJ45)
- Kd (Trypsin (Bos taurus) [8]): 160 nM

Substance: APHC1 (from UniProt B2G331)
- Kd (Trypsin (Bos taurus) [9]): 1000 nM
- Kd [10]: 5000 nM

Substance: SA5 II (from UniProt P10280)
- Kd (Trypsin (Bos taurus) [11]): 0.3 nM

Substance: Kalicludin-1 (AsKC1) (from UniProt Q9TWG0)
- Kd (Trypsin (Bos taurus) [12]): < 30 nM

Substance: AvKTI (from UniProt Q8T3S7)
- Ki [13]: 169 nM
- Ki (Trypsin (Bos taurus) [14]): 7.34 nM
- Ki (Plasmin (Homo sapiens) [15]): 4.89 nM
- Ki [16]: 37.8 nM

- Ki (Papain (Carica papaya) [17]): 0.6 nM
Substance: Equistatin N-terminal domain (from UniProt P81439)

Substance: rBmKTT-1 (from UniProt P0DJ49)
- Kd (Trypsin (Bos taurus) [18]): 136 nM

Substance: Pr-mulgin 1 (from UniProt E7FL11)
- Ki (Metalloprotease 2): 60 nM

Substance: NACI (from UniProt Q5ZPJ7)
- Ki [19]: 25 nM

Substance: Kalicludin-2 (AsKC2) (from UniProt Q9TWF9)
- Kd (Trypsin (Bos taurus) [20]): < 30 nM

Substance: BF9 (from UniProt P25660)
- Kd [21]: 58 nM

Substance: rBmKTT-2 (from UniProt P0DJ50)
- Kd (Trypsin (Bos taurus) [22]): 420 nM

- Ki (Trypsin (Bos taurus) [23]): 170 nM
- Ki [24]: 170 nM
Substance: OH-TCI (native) (from UniProt B6RLX2)

Substance: rLmKTT-1c (from UniProt P0DJ48)
- Kd (Trypsin (Bos taurus) [25]): 124 nM

- Ki (Trypsin (Bos taurus) [26]): 5100 nM
- Ki [27]: 4.3 nM
Substance: Chymotrypsin inhibitor (from UniProt P00992)

Substance: Dendrotoxin E (from UniProt P00984)
- Kd (Trypsin (Bos taurus) [28]): 1 nM
- Kd [29]: 100 nM

Substance: Bi-KTI (from UniProt G3LH89)
- Ki (Plasmin (Homo sapiens) [30]): 3.6 nM

- Ki (Trypsin (Bos taurus) [31]): 0.34 nM
- Ki [32]: 270 nM
Substance: Trypsin inhibitor I (from UniProt P00991)

Substance: rLmKTT-1a (from UniProt P0DJ46)
- Kd (Trypsin (Bos taurus) [33]): 140 nM

Substance: Elastase inhibitor (from UniProt P16895)
- Kd [34]: 1 nM

Substance: CBPTI-1 (from UniProt A8Y7N4)
- Ki (Trypsin (Bos taurus) [35]): 407 nM

Substance: Equistatin (from UniProt P81439)
- Ki (Cathepsin B): 1.4 nM
- Ki (Cathepsin L): 0.051 nM
- Ki (Papain (Carica papaya) [36]): 0.57 nM

Substance: Toxin I (from UniProt P00979)
- Kd (Kv1.2): < 20 nM
- Kd (Kv1.6): < 20 nM
- Kd (Kv1.1): < 20 nM

Substance: Bt-KTI (from UniProt D8KY58)
- Ki (Plasmin (Homo sapiens) [37]): 2.01 nM

- Ki (Trypsin (Bos taurus) [38]): 55.6 nM
Substance: PILP-1 (from UniProt B4ESA2)

Substance: Bungaruskunin (from UniProt B2KTG1)
- Ki [39]: 6100 nM

Substance: CBPTI-2 (from UniProt A8Y7N5)
- Ki (Trypsin (Bos taurus) [40]): 666 nM

Substance: ShPI-1 (from UniProt P31713)
- Kd (Trypsin (Bos taurus) [41]): 0.11 nM
- Kd (Plasmin (Homo sapiens) [42]): 2.7 nM
- Kd [43]: 2.3 nM

Substance: rHg1 (from UniProt P0C8W3)
- Kd (Trypsin (Bos taurus) [44]): 107 nM
